Here are results for two molecules from CN111494645A (UNIV CHINA PHARMA, dated 2020).

Residue numbers refer to the chain shown, from its start. Names may count otherwise.

For experiment [1], the target named is T1, 人DLL4抗原 (human, UniProt Q9NR61 27-524, limits assumed).
T1 construct: also called Delta like 4
Description: ELISA, DLL4 antigen coated at 1 μg/mL, antibody titrated 0-1000 nM, HRP secondary, OD450-OD630.

Experiment [2] addresses T1, 人DLL4抗原. The experiment is described as follows: ELISA, DLL4 antigen coated at 1 μg/mL, conjugate titrated 0-1000 nM, HRP secondary, OD450-OD630.

T1 sequence (Q9NR61 27-524 limits assumed): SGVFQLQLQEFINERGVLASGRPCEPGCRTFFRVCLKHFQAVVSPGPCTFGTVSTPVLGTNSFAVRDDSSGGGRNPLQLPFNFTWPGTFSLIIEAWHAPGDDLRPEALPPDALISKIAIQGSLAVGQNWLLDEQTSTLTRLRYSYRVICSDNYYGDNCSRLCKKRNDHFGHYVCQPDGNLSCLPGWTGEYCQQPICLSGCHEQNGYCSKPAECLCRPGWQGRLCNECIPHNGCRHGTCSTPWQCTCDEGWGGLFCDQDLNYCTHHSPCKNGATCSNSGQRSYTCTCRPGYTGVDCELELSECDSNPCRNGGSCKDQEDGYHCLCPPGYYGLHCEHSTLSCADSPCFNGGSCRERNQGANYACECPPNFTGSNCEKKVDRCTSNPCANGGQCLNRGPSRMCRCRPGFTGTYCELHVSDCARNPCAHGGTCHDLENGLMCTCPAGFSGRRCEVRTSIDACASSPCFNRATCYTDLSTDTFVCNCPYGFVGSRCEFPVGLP

B1: 抗人DLL4人源化抗体H3L2 (antibody)
heavy: not shown
light: EIVITQSPDFQSVTPKEKVTITCSVSSSISSSYLHWYQQKPDQSPKPWIYGTSNLASGVPSRFSGSGSGTDYTLTINSLEAEDAATYYCQQWSSSPLTFGQGTKLEIKVDTVAAPSVFIFPPSDEQLKSGTASVVCLLNNFYPREAKVQWKVDNALQSGNSQESVTEQDSKDSTYSLSSTLTLSKADYEKHKVYACEVTHQGLSSPVTKSFNRGEC
notes: IgG1 humanized antibody; also called 裸抗
B1: the response in experiment [1] was half-maximal at 49.2 nM (EC50).

B2: 抗人DLL4人源化抗体THL4与美登素生物碱DM1的偶联物HLmD4 (THL4-mpeo-DM1) (antibody, human IgG1, kappa, DAR 3.96)
heavy: not shown
light: B1 light with V207C
modifications: DM1 coupled through the BMPEO linker (mpeo-DM1) to the engineered Cys at light chain position 207 (V207C); DM1 coupled through the BMPEO linker (mpeo-DM1) to the engineered Cys at heavy chain position 121 (K121C)
notes: Antibody-drug conjugate of the IgG1 antibody THL4 (H3L2 with light chain V207C and heavy chain K121C) with DM1; average DAR 3.96 by HPLC; also called 抗体药物偶联物HLmD4
Consider B2, for which the EC50 (usually the concentration at which the effect is half-maximal) in experiment [2] was found to be 42.6 nM.
